{"source": "paper PMC7322680", "about": "(Biochemistry and Biophysics Reports, 2020)", "proteins": {"B1": {"name": "human podocin domain (residues 126-350) (domain or fragment, UniProt Q9NP85 126-350, looked up)", "chain": "KVVQEYERVIIFRLGHLLPGRAKGPGLFFFLPCLDTYHKVDLRLQTLEIPFHEIVTKDMFIMEIDAICYYRMENASLLLSSLAHVSKAVQFLVQTTMKRLLAHRSLTEILLERKSIAQDAKVALDSVTCIWGIKVERIEIKDVRLPAGLQHSLAVEAEAQRQAKVRMIAAEAEKAASESLRMAAEILSGTPAAVQLRYLHTLQSLSTEKPSTVVLPLPFDLLNCL"}}, "key": {"SEC-MALS": {"target": "the molecule itself", "test": "SEC-MALS"}, "SEC": {"target": "the molecule itself", "test": "SEC"}}, "note": "Where “and” joins values, the source holds several entries; their conditions need not be identical. Equal values may be shown once.", "data": [{"protein": "B1", "values": [{"measurement": "stoichiometry N", "setting": "SEC-MALS", "result": "~16 and 25 and 13"}, {"measurement": "stoichiometry N", "setting": "SEC", "result": 16}]}]}
